Assay results reported in PMC7949124, “Metallo-β-lactamase domain-containing protein 2 is S-palmitoylated and exhibits acyl-CoA hydrolase activity” (The Journal of Biological Chemistry, 2020).

B1: MBLAC2 (Homo sapiens) (protein)
chain: MSALEWYAHKSLGDGIFWIQERFYESGNRANIWLVRGSEQDVVIDTGLGLRSLPEYLYSSGLLQDREAKEDAARRPLLAVATHVHFDHSGGLYQFDRVAVHHAEAEALARGDNFETVTWLSDSEVVRTPSPGWRARQFRVQAVQPTLILQDGDVINLGDRQLTVMHMPGHSRGSICLHDKDRKILFSGDVVYDGSLIDWLPYSRISDYVGTCERLIELVDRGLVEKVLPGHFNTFGAERLFRLASNYISKAGICHKVSTFAMRSLASLALRVTNSRTSP
notes: N-terminal hexahistidine tag, C-terminal FLAG; baculovirus/Sf9; zinc metalloenzyme; partly S-palmitoylated at Cys254
B2: MBLAC2 (Homo sapiens; C254A) (protein)
chain: MSALEWYAHKSLGDGIFWIQERFYESGNRANIWLVRGSEQDVVIDTGLGLRSLPEYLYSSGLLQDREAKEDAARRPLLAVATHVHFDHSGGLYQFDRVAVHHAEAEALARGDNFETVTWLSDSEVVRTPSPGWRARQFRVQAVQPTLILQDGDVINLGDRQLTVMHMPGHSRGSICLHDKDRKILFSGDVVYDGSLIDWLPYSRISDYVGTCERLIELVDRGLVEKVLPGHFNTFGAERLFRLASNYISKAGIAHKVSTFAMRSLASLALRVTNSRTSP
notes: as for B1

Substrate: CCCCCCCCCCCCCCCC(=O)SCCNC(=O)CCNC(=O)[C@H](O)C(C)(C)COP(=O)(O)OP(=O)(O)OC[C@H]1O[C@@H](n2cnc3c(N)ncnc32)[C@H](O)[C@@H]1OP(=O)(O)O
Test: radiometric acyl-CoA hydrolase assay, heptane extraction of [3H]-palmitate
Type: biochemical, Homo sapiens
Conditions: 30 °C, 10 min, 0.05% DDM, labelled compound ([3H] tracer diluted with unlabelled), fitted over 0-10 μM because of substrate inhibition, n = 4
Source text: radiometric acyl-CoA hydrolase assay, heptane extraction of [3H]-palmitate on MBLAC2

Row | Protein | Km [µM] | Vmax [µmol/min/mg]
1 | B1 | 1.9 ± 0.6 | 0.103
2 | B2 | 2.2 ± 0.7 | 0.0879
